Source: patent publication US12514920B1, “Respiratory syncytial virus mRNA vaccine, and preparation method therefor and use thereof” (Hangzhou Tianlong Pharmaceutical Co., Ltd., priority 2024, dated 2026)
Positions count from the first letter of the chain named.

B1: YK-RSV-053 (protein)
chain: QNITEEFYQSTCSAVSKGYLGALRTGWYTSVITIELSNIKENKCNGTDAKVKLIKQELDKYKNAVTDLQLLMQSTPATGSGSAICSGVAVSKVLHLEGEVNKIKSALLSTNKAVVSLSNGVSVLTFKVLDLKNYIDKQLLPILNKQSCSIPNIETVIEFQQKNNRLLEITREFSVNAGVTTPVSTYMLTNSELLSLINDMPITNDQKKLMSNNVQIVRQQSYSIMSIIKEEVLAYVVQLPLCGVIDTPCWKLHTSPLCTTNTKEGSNICLTRTDRGWYCDNAGSVSFFPQAETCKVQSNRVFCDTMNSRTLPSEVNLCNVDIFNPKYDCKIMTSKTDVSSSVITSLGAIVSCYGKTKCTASNKNRGIIKTFSNGCDYVSNKGVDTVSVGNTLYYVNKQEGQSLYVKGEPIINFYDPLVFPSDEFDASISQVNEKINQSLAFIRKSDELLHNVNAGKSTTNIMITTIIIVIIVILLSLIAVGLLLY
B2: YK-RSV-018 (protein)
chain: B1 chain with Q9C, L143V, T155I, C242Y, Y394C, G407C, D422S
B3: YK-RSV-022 (protein)
chain: QNITEEFYQSTCSAVSKGYLGALRTGWYTSVITIELSNIKENKCNGTDAKVKLIKQELDKYKNAVTDLQLLMQSTPACGSGSACASGVAVSKVLHLEGEVNKIKSALLSTNKAVVSLSGCGVSVLTFKVLDLKNYIDKQLLPIVNKQSCSIPNIETVIEFQQKNNRLLEITREFSVNAGVTTPVSTYMLTNSELLSLINDMPITNDQKKLMSNNVQIVRQQSYSIMSIIKEEVLAYVVQLPLYGVIDTPCWKLHTSPLCTTNTKEGSNICLTRTDRGWYCDNAGSVSFFPQAETCKVQSNRVFCDTMNSRTLPSEVNLCNVDIFNPKYDCKIMTSKTDVSSSVITSLGAIVSCYGKTKCTASNKCRGIIKTFSNGCDYVSNKGVDTVSVGNTLYYVNKQEGQSLYVKGEPIINFYDPLVFPSSEFDASISQVNEKINQSLAFIRKSDELLHNVNAGKSTTNIMITTIIIVIIVILLSLIAVGLLLY
B4: YK-RSV-031 (protein)
chain: B1 chain with F7C, C85A, C242Y, Y404C
B5: YK-RSV-041 (protein)
chain: B1 chain with S16C, C85A, C242Y, S255C
B6: YK-RSV-033 (protein)
chain: B1 chain with T11C, C85A, C242Y, G407C
B7: YK-RSV-042 (protein)
chain: B1 chain with Y19C, C85A, C242Y, S255C
B8: YK-RSV-004 (protein)
chain: B1 chain with S91C, F126I, L143V, S149P, P151S, S226C, C242Y, Y394C, D422S
B9: YK-RSV-013 (protein)
chain: B1 chain with T78C, I84C, C85A, L143V, C242Y, Y394C, D422S
B10: YK-RSV-008 (protein)
chain: B1 chain with S30C, C85A, L124C, F126I, L143V, C242Y, D422S

tested on: RSV F antibody (11A9); experiment: Binding of epitope II of RSV F antigen mutants by flow cytometry; conditions: binding rate, 293T cells 16 h after mRNA-LNP transfection
Description: (§1) To investigate whether the RSV F antigen mutants have pre-fusion epitopes, an RSV pre-F antibody (3C12) (specifically binding to the RSV pre-F epitope […]) and an RSV F antibody (11A9) (binding to pre-F and post-F epitopes II) were detected by flow cytometry in this example, and RSV F protein mutants in the pre-F conformation were expected to bind to the antibodies tested.
(§2) • 293T cells (purchased from ATCC cell bank); RSV pre-F antibody (3C12), epitope […] (Novoprotein, Cat. No.: DA101); RSV F antibody (11A9), epitope II (Novoprotein, Cat. No.: DA091); • experimental groups: mRNA vaccines corresponding to the expressed antigens in Example 3;
(§3) • (1) Cell transfection: 293T cells were seeded at 1.3×10^5 cells/well in a 24-well plate. The next day, mRNA-LNP samples (containing 300 ng of mRNA) were added directly to the cells, and the mixture was uniformly mixed. • (2) Cell collection: The cells were taken out of the incubator after 16 h of transfection, the medium was pipetted off, 500 μL of 0.1% BSA solution was pipetted to wash the medium remaining in the well plate, taking care not to resuspend the cells, and the 0.1% BSA solution was pipetted off. 500 μL of 0.1% BSA solution was added to each well, and the cells were pipetted and transferred to a 1.5 mL centrifuge tube. • (3) Centrifugation: The cells were harvested by centrifugation at 400 g for 5 min at 4° C. in the dark, and the supernatant was discarded. • (4) Straining: 50.6 μL of RSV fluorescent antibody diluent was added to each of the control sample and the test samples to resuspend the cells, and the samples were incubated at 4° C. for 2 h in the dark. • (5) Cleaning: After the incubation was completed, 500 μL of 0.1% BSA solution was added to each tube, the cells were harvested by centrifugation at 400 g for 5 min at 4° C. in the dark, and the supernatant was discarded. This operation was repeated three times. • (6) Resuspension of cells: 200 μL of 0.1% BSA solution was added to each sample, and the cells were carefully pipetted to prepare a cell suspension. • (7) Detection on flow cytometer: The […] of RSV F mutants to antibodies were measured using flow cytometry, with 1×10^4 cells detected in each measurement.
(§4) The RSV pre-F antibody (3C12) used in this example specifically binds to the RSV pre-F epitope Φ, and the RSV F antibody (11A9) binds to the pre-F and post-F epitopes II. Whether the pre-fusion conformations of the RSV F mutants are stable can be further determined by detecting the binding of the epitope Φ and the epitope II on the mutants to corresponding epitopes of antibodies 3C12 and 11A9, respectively, by flow cytometry.

| Molecule | RSV F antibody (11A9) Epitope II (%) |
| --- | --- |
| B1 | 67.0% |
| B2 | 76.3% |
| B3 | 2.1% |
| B4 | 83.4% |
| B5 | 81.5% |
| B6 | 82.4% |
| B7 | 61.1% |

same assay, conditions: epitope II, antibody 11A9

| Molecule | RSV F antibody (11A9) Epitope II (%) binding rate |
| --- | --- |
| B8 | 90.1% |
| B9 | 94.3% |
| B10 | 92.5% |

tested on: RSV pre-F antibody (3C12); experiment: not given; format: physicochemical; conditions: high osmotic pressure 3000 mM, room temperature, 60 min; ELISA binding to 3C12
Description: To investigate the stability of the RSV F antigen mutants under different pH, temperature, osmotic pressure and other conditions, the mutants were subjected to stress tests under different treatment conditions in this example.
• 293T cells (purchased from ATCC cell bank); • Primary antibody: RSV pre-F antibody (3C12), epitope Φ (purchased from Suzhou Novoprotein Scientific Co., Ltd. (hereinafter referred to as Novoprotein), Cat. No.: DA101); • Standard: RSV pre-F trimer protein (Novoprotein, Cat. No.: DRA230); • Secondary antibody: peroxidase AffiniPure goat anti-human IgG (H+L) (purchased from Yeasen Biotechnology (Shanghai) Co., Ltd. (hereinafter referred to as Yeasen), Cat. No.: N/A); • Experimental group: mRNA vaccines after screening in Example 4;
Coating: A 96-well microplate was coated with a working solution and incubated at 2 to 8° C. for 16 to 20 h.
Plate washing: Phosphate buffered saline PBST was added to each well, and the plate was washed 5 times using a plate washer and patted dry on absorbent paper.
Blocking: After a blocking solution was added, the […] were placed on a constant temperature microplate shaker and incubated at 400 rpm for 1.5 h at 37° C.
Plate washing: PBST was added to each well, and the plate was washed 5 times using a plate washer and patted dry on absorbent paper.
Primary antibody incubation: A primary antibody dilution was added to each well, and the plate was sealed with a sealing film, and then incubated at 400 rpm for 1.5 h at 37° C.
Secondary antibody incubation: A secondary antibody dilution was added to each well, and the plate was sealed with a sealing film, and then incubated at 400 rpm for 45 min at 37° C.
Color development: A chromogenic solution was added, and the plate was sealed with a sealing film, and then placed on a constant temperature microplate shaker and incubated at 400 rpm for 25 min at 37° C.
Reaction stopping: After the color development was completed, a stop buffer was added at […] to the microplate to stop the reaction.
Plate reading: Absorbance values (OD values) were read within 5 min using a multimode microplate reader, with dual wavelengths of 450 nm and 630 nm set.
In this example, stability screening of the mutants through different treatment conditions was defined as a stress test, including storage at 4° C. for one week; incubation at 50° C. for 60 min; treatment at room temperature under low osmotic pressure and high osmotic pressure conditions for 60 min; treatment at room temperature under acid and base conditions for 60 min. The binding of the mutants to the RSV pre-F antibody (3C12) recognizing the epitope Φ was detected by ELISA.

| Molecule | Stress resistance parameter, Osmotic pressure (mM) 3000 |
| --- | --- |
| B8 | 0.46 ± 0.13 |
| B9 | 0.43 ± 0.04 |
| B10 | 0.33 ± 0.02 |

same assay, conditions: incubation at 50° C. for 60 min; ELISA binding to 3C12

| Molecule | Stress resistance parameter, Temperature (° C.) 50 |
| --- | --- |
| B8 | 0.48 ± 0.05 |
| B9 | 0.91 ± 0.23 |
| B10 | 0.45 ± 0.08 |

same assay, conditions: low osmotic pressure 10 mM, room temperature, 60 min; ELISA binding to 3C12

| Molecule | Stress resistance parameter, Osmotic pressure (mM) 10 |
| --- | --- |
| B8 | 0.91 ± 0.23 |
| B9 | 0.59 ± 0.08 |
| B10 | 0.81 ± 0.09 |

same assay, conditions: pH 3.5, room temperature, 60 min; ELISA binding to 3C12

| Molecule | Stress resistance parameter, pH 3.5 |
| --- | --- |
| B8 | 0.97 ± 0.21 |
| B9 | 0.84 ± 0.19 |
| B10 | 0.76 ± 0.21 |

same assay, conditions: pH 10, room temperature, 60 min; ELISA binding to 3C12

| Molecule | Stress resistance parameter, pH 10 |
| --- | --- |
| B8 | 1.00 ± 0.27 |
| B9 | 0.92 ± 0.04 |
| B10 | 0.99 ± 0.19 |

same assay, conditions: storage at 4° C. for one week; ELISA binding to 3C12

| Molecule | Stress resistance parameter, Temperature (° C.) 4 |
| --- | --- |
| B8 | 0.72 ± 0.06 |
| B9 | 0.69 ± 0.11 |
| B10 | 0.65 ± 0.06 |

tested on: RSV pre-F antibody (3C12); experiment: Binding of epitope Φ of RSV F antigen mutants by flow cytometry; conditions: binding rate, flow cytometry, 293T cells 16 h after mRNA-LNP transfection
Description: as §1, §2, §3, §4

| Molecule | RSV pre-F antibody (3C12) Epitope Φ (%) |
| --- | --- |
| B1 | 40.0% |
| B2 | 68.4% |
| B3 | 0.2% |
| B4 | 75.5% |
| B5 | 73.7% |
| B6 | 72.0% |
| B7 | 49.8% |

same assay, conditions: flow cytometry; epitope Φ, antibody 3C12

| Molecule | RSV pre-F antibody (3C12) Epitope Φ (%) binding rate |
| --- | --- |
| B8 | 82.1% |
| B9 | 89.3% |
| B10 | 83.9% |

same assay, conditions: ratio of epitope Φ (3C12) to epitope II (11A9) binding rate

| Molecule | Φ/II (%) |
| --- | --- |
| B8 | 91.1% |
| B9 | 94.7% |
| B1 | 59.7% |
| B2 | 89.6% |
| B10 | 90.7% |
| B3 | 9.5% |
| B4 | 90.5% |
| B5 | 90.4% |
| B6 | 87.4% |
| B7 | 81.5% |
